# Laboratory results published in patent US20250277026A1 (NOVAROCK BIOTHERAPEUTICS, published 2025).
# T1: human Claudin-4 (human, UniProt O14493 1-209)
# T1 construct: On transfected CHO-K1 cells, or endogenous on MCF7 cells; also called CLDN4
# T1 sequence: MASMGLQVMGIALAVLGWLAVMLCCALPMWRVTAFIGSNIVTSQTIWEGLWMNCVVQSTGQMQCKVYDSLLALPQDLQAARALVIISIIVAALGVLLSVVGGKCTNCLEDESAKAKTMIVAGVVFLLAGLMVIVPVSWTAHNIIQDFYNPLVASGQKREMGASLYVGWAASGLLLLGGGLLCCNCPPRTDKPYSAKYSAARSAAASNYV
# T2: human Claudin-9 (human, UniProt O95484 1-217)
# T2 construct: On transfected HEK293 cells; also called CLDN9
# T2 sequence: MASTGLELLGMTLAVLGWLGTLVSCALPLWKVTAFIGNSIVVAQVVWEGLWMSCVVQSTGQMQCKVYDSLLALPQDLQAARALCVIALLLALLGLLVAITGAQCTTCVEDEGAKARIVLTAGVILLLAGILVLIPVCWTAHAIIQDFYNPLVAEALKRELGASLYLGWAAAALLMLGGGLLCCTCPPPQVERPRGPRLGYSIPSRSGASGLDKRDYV
# T3: human Claudin-3 (human, UniProt O15551 1-220)
# T3 construct: On transfected CHO-K1 cells, or endogenous on MCF7 cells; also called CLDN3
# T3 sequence: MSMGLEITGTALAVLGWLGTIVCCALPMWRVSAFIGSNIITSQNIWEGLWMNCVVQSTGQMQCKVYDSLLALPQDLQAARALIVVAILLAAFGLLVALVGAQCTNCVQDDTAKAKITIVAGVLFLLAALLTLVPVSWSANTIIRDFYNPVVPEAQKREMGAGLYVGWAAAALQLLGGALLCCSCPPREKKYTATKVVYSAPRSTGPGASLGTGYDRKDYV
# T4: human Claudin-6 (human, UniProt P56747 1-220)
# T4 sequence: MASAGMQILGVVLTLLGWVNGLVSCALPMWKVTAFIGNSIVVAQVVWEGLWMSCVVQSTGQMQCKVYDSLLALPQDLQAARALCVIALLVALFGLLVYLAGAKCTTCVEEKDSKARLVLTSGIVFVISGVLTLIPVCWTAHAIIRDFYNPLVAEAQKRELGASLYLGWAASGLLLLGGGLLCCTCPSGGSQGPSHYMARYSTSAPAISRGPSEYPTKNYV
# B1: NR.N6.Ab2 (antibody, V domains shown)
# VH: QVQLVESGGGVVQPGRSLRLSCTASGFTFSHYGMHWVRQAPGKGLEWVSFLWFDGSKDNYADSVKGRFTISRDNSKNMLYLRMDSLRAEDTAVYYCARNGGLTIFDYWGQGTLVTVSS
# VL: AIQLTQSPSSLSASVGDRVTITCRASQGINSWLAWYQQKPEKAPKSLIYAASSLQSGVPSRFSGSGSGTDFTLTISSLQPEDFATYYCQQYNFYPYTFGQGTKLEII
# notes: hybridoma-purified antibody in the Claudin-3-CHO-K1, Claudin-4-CHO-K1 and MCF7 assays
# B2: NR.N6.Ab4 (antibody, V domains shown)
# VH: QVQLVESGGGVVQPGRSLRLSCAASGFIFSSYGMHWVRQAPGKGLEWVAVIWYDGSNKFYADSVKGRFTISRDNSRKTLYLQMNSLRAEDTAVYYCARDGRYFDWGGSYYYYYGMDVWGQGTTVTVSS
# VL: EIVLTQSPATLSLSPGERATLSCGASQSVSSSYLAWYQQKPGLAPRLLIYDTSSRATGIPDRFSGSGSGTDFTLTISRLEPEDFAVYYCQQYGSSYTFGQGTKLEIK
# B3: NR.N6.Ab5 (antibody, V domains shown)
# VH: QVQLVESGGGAVQPGRSLRLSCAASGFIFSSYGMHWVRQAPGKGLEWVAIIWFDGRNKNYADSVKGRFTISRDNSKKTLYLEMSSLRAEDTAVYYCARDGRYFDWGGSYYYYYGMDVWGQGTTVTVSS
# VL: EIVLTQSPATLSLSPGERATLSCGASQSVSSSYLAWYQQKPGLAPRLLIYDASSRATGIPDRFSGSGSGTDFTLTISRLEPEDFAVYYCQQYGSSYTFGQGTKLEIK
# notes: LCDR 41, 45, 43); also called NR.4.N6.Ab5
# B4: NR.N6.Ab1 variant N73D (antibody, V domains shown)
# VH: QVQLVQSGAEVKKPGASVKVSCKASGNTFTSYDINWVRQATGQGLEWMGWMNPNSGNTGYAQKFQGRVTMTRDTSISTAYMELSSLRSEDTAVYYCVYYNYVWGSFRFDDWGQGTLVTVSS
# VL: DIQLTQSPSFLSASVGDRVTITCRASQGISSYLAWYQQKPGKAPKLLIYAASTLQSGVPSRFSGSGSGTEFTLAVSSLQPEDFATYYCQQLNSYPYTFGQGTKLEIK
# notes: the LALA changes of the constant region are explained nowhere; also called NR.N6.Ab1N73D; NR.N6.Ab1 N73D
# B5: NR.N6.Ab3 (antibody, V domains shown)
# VH: QVQLVESGGGVVQPGRSLRLSCAASGFTFSGYGMHWVRQAPGKGLEWVAAIWYDGSNKYYADSVKGRFTISSDNSKNTLYLQMKSLRAEDTAVYYCAREWYSSGWSMYDVFDIWGQGTMVTVSS
# VL: QTVVTQEPSFSVSPGGTVTLTCGLSSGSVSTSYYPSWYQQTPGQAPRTLIYSTNTRSSGVPDRFSGSILGNKAALTITGAQADDESDYYCVLYMGSGIWVFGGGTKLTVL
# Experiments:
# human Claudin-4 [1] = biological target: T1, human Claudin-4; experiment: FACS on Claudin-4-CHO-K1 cells, MFI relative to the isotype control
# Method: (§1) Briefly, Claudin-6-CHO-K1 cells verse parental CHO-K1 cells were incubated with anti-CLDN6 antibodies for 2 hours at 4° C. Cells were fixed with 2% PFA (Alfa Aesar, cat #: J61899) for 15 minutes at 4° C. and then washed. […] Flow cytometric analyses were performed on a flow cytometry instrument (Intellicyte, IQue plus, Sartorius).
# human Claudin-9 [2] = biological target: T2, human Claudin-9; experiment: FACS dose response, Claudin-9-HEK293 cells
# Method: (§2) The binding specificity of the disclosed anti-Claudin-6 antibodies were further assessed for binding to Claudin-9 by FACS. Briefly, Claudin-9-HEK293 cells (GenScript, Item #U3288DL180_4) were incubated with recombinant Claudin-6 antibodies for 2 hours at 4° C. Cells were fixed with 2% PFA (Alfa Aesar, cat #: J61899) for 15 minutes at 4° C. and then washed. […] Flow cytometric analyses were performed on a flow cytometry instrument (Intellicyte, IQue plus, Sartorius).
# human Claudin-3 [3] = biological target: T3, human Claudin-3; experiment: FACS on Claudin-3-CHO-K1 cells, MFI relative to the isotype control
# Method: as §1
# human Claudin-6 [4] = biological target: T4, human Claudin-6; experiment: cell-based or functional assay
# human Claudin-9 [5] = biological target: T2, human Claudin-9; experiment: FACS, Claudin-9-HEK293 cells, 5 µg/ml
# Method: as §2
# human Claudin-3 [6] = biological target: T3, human Claudin-3; experiment: FACS on MCF7 cells, which endogenously express Claudin-3 and Claudin-4, MFI
# human Claudin-6 [7] = biological target: T4, human Claudin-6; experiment: FACS dose response, Claudin-6-CHO cells
# Method: as §1
# human Claudin-4 [8] = biological target: T1, human Claudin-4; experiment: FACS on Claudin-4-CHO-K1 cells, MFI
# Method: as §1
# human Claudin-6 [9] = biological target: T4, human Claudin-6; experiment: FACS, Claudin-6-CHO-K1 cells, 5 µg/ml
# Method: as §1
# human Claudin-6 [10] = biological target: T4, human Claudin-6; experiment: cell-based or functional assay; remark: listed apart in the source
# human Claudin-6 [11] = biological target: T4, human Claudin-6; experiment: FACS, NEC8 cells (endogenous CLDN6)
# Method: (§3) Cells were fixed with 2% PFA (Alfa Aesar, catalog number: J61899) for 15 minutes at 4° C. and then washed. […] Flow cytometric analyses were performed on a flow cytometry instrument (Intellicyte, IQue plus, Sartorius).
# human Claudin-6 [12] = biological target: T4, human Claudin-6; experiment: FACS dose response, Claudin-6-HEK293 cells
# human Claudin-6 [13] = biological target: T4, human Claudin-6; experiment: FACS, OV90 cells (endogenous CLDN6)
# Method: as §3
# human Claudin-4 [14] = biological target: T1, human Claudin-4; experiment: FACS on MCF7 cells, which endogenously express Claudin-3 and Claudin-4; MFI relative to the isotype control
# human Claudin-3 [15] = biological target: T3, human Claudin-3; experiment: as above
# human Claudin-6 [16] = biological target: T4, human Claudin-6; experiment: FACS dose response, Claudin-6-CHO-K1 cells
# Method: (§4) The anti-CLDN6 antibodies were also evaluated for their binding affinity to Claudin-6 overexpressing cell lines by FACS.
# human Claudin-3 [17] = biological target: T3, human Claudin-3; experiment: FACS, Claudin-3-CHO-K1 cells, serial dilution, MFI
# Method: as §1
# human Claudin-6 [18] = biological target: T4, human Claudin-6; experiment: FACS, Claudin-6-HEK293 cells, 5 µg/ml
# human Claudin-6 [19] = biological target: T4, human Claudin-6; experiment: FACS, NEC8 cells (endogenous CLDN6); remark: listed apart in the source
# Method: as §3
# human Claudin-6 [20] = biological target: T4, human Claudin-6; experiment: cell-based or functional assay; remark: listed apart in the source
# human Claudin-6 [21] = biological target: T4, human Claudin-6; experiment: cell-based or functional assay; remark: listed apart in the source
# human Claudin-6 [22] = biological target: T4, human Claudin-6; experiment: FACS dose response, NEC8 cells (endogenous CLDN6)
# Method: as §3, §4
# human Claudin-6 [23] = biological target: T4, human Claudin-6; experiment: FACS dose response, Claudin-6-HEK293 cells; remark: listed apart in the source
# Method: as §4
# human Claudin-4 [24] = biological target: T1, human Claudin-4; experiment: FACS, Claudin-4-CHO-K1 cells, serial dilution, MFI
# Method: as §1
# human Claudin-3 [25] = biological target: T3, human Claudin-3; experiment: FACS, Claudin-3-CHO-K1 cells, serial dilution, MFI; remark: listed apart in the source
# Method: as §1
# human Claudin-4 [26] = biological target: T1, human Claudin-4; experiment: FACS, Claudin-4-CHO-K1 cells, serial dilution, MFI; remark: listed apart in the source
# Method: as §1
# human Claudin-6 [27] = biological target: T4, human Claudin-6; experiment: FACS dose response, Claudin-6-HEK293 cells; remark: listed apart in the source
# human Claudin-6 [28] = biological target: T4, human Claudin-6; experiment: FACS dose response, NEC8 cells (endogenous CLDN6); remark: listed apart in the source
# human Claudin-3 [29] = biological target: T3, human Claudin-3; experiment: FACS, Claudin-3-CHO-K1 cells, serial dilution, MFI; remark: listed apart in the source
# Method: as §1
binder,measurement,setting,value
B1,fold MFI over isotype control,human Claudin-4 [1],0.9 x
same,EC50,human Claudin-9 [2],1.49 nM
same,fold MFI over isotype control,human Claudin-3 [3],0.8 x
same,"endocytosis-mediated cytotoxicity (anti-hFc Fab-MMAF, CellTiter-Glo) on NEC8 cells, EC50 mean (St. Dev. 0.07)",human Claudin-6 [4],0.1 nM
same,fold MFI over isotype control,human Claudin-9 [5],53 fold
same,binding result,human Claudin-3 [6],no binding
same,EC50,human Claudin-6 [7],6.88 nM
same,binding result,human Claudin-4 [8],no binding
same,fold MFI over isotype control,human Claudin-6 [9],24 fold
same,"endocytosis-mediated cytotoxicity on OV90 cells, EC50",human Claudin-6 [10],2.32 nM
same,fold MFI over isotype control,human Claudin-6 [11],25 fold
same,EC50,human Claudin-6 [12],1 nM
same,fold MFI over isotype control,human Claudin-6 [13],17 fold
same,fold MFI over isotype control,human Claudin-4 [14],1.1 x
same,fold MFI over isotype control,human Claudin-3 [15],1.1 x
B2,EC50,human Claudin-6 [16],4.79 nM
same,binding result,human Claudin-3 [17],no binding (tested: log 1.5 (about 33 nM))
same,fold MFI over isotype control,human Claudin-6 [18],23 fold
same,fold MFI over isotype control,human Claudin-6 [19],19 fold
same,"endocytosis killing (anti-hFc Fab-MMAF, CellTiter-Glo, 72 h) on NEC8 cells, EC50",human Claudin-6 [20],0.41 nM
same,"ADCC reporter assay on NEC8 cells, EC50",human Claudin-6 [21],9.83 nM
same,EC50,human Claudin-6 [22],8.34 nM
same,EC50,human Claudin-6 [23],15.7 nM
same,binding result,human Claudin-4 [24],no binding (tested: log 1.5 (about 33 nM))
B3,EC50,human Claudin-6 [16],3.99 nM
same,binding result,human Claudin-3 [25],no binding (tested: log 1.5 (about 33 nM))
same,fold MFI over isotype control,human Claudin-6 [18],24 fold
same,fold MFI over isotype control,human Claudin-6 [19],21 fold
same,binding result,human Claudin-4 [26],no binding (tested: log 1.5 (about 33 nM))
same,"endocytosis killing (anti-hFc Fab-MMAF, CellTiter-Glo, 72 h) on NEC8 cells, EC50",human Claudin-6 [20],0.26 nM
same,"ADCC reporter assay on NEC8 cells, EC50",human Claudin-6 [21],3.78 nM
same,EC50,human Claudin-6 [22],5.92 nM
same,EC50,human Claudin-6 [23],4.13 nM
B4,EC50,human Claudin-6 [27],0.42 nM
same,EC50,human Claudin-6 [28],0.74 nM
B5,EC50,human Claudin-6 [16],4.69 nM
same,binding result,human Claudin-3 [29],no binding (tested: log 1.5 (about 33 nM))
same,fold MFI over isotype control,human Claudin-6 [18],31 fold
same,fold MFI over isotype control,human Claudin-6 [19],20 fold
same,"endocytosis killing (anti-hFc Fab-MMAF, CellTiter-Glo, 72 h) on NEC8 cells, EC50",human Claudin-6 [20],0.51 nM
same,"ADCC reporter assay on NEC8 cells, EC50",human Claudin-6 [21],6.43 nM
same,EC50,human Claudin-6 [22],3.27 nM
same,EC50,human Claudin-6 [23],5.17 nM
